Test results: PMC4336777

Substrate: CC(=O)N1c2ccc(O)cc2Oc2cc(O)ccc21
Assay: purified protein, by the assay type
[1] = other: Lineweaver-Burk curves in the absence of inhibitor
[2] = other: initial velocities, plate reader, MPO 23 nM, H2O2 22 μM, error 2 x SD

B1: Myeloperoxidase (MPO) (Homo sapiens) (protein)
chain 1: not shown
chain 2: VNCETSCVQQPPCFPLKIPPNDPRIKNQADCIPFFRSCPACPGSNITIRNQINALTSFVDASMVYGSEEPLARNLRNMSNQLGLLAVNQRFQDNGRALLPFDNLHDDPCLLTNRSARIPCFLAGDTRSSEMPELTSMHTLLLREHNRLATELKSLNPRWDGERLYQEARKIVGAMVQIITYRDYLPLVLGPTAMRKYLPTYRSYNDSVDPRIANVFTNAFRYGHTLIQPFMFRLDNRYQPMEPNPRVPLSRVFFASWRVVLEGGIDPILRGLMATPAKLNRQNQIAVDEIRERLFEQVMRIGLDLPALNMQRSRDHGLPGYNAWRRFCGLPQPETVGQLGTVLRNLKLARKLMEQYGTPNNIDIWMGGVSEPLKRKGRVGPLLACIIGTQFRKLRDGDRFWWENEGVFSMQQRQALAQISLPRIICDNTGITTVSKNNIFMSNSYPRDFVNCSTLPALNLASWREAS
Q: Which Km [1] does the source give for B1 here?
A: The Km was 28.8 µM.

Q: What about the kcat [1] of the same protein?
A: Its kcat is 207 s⁻¹.

Q: What about the Km [2] of the same protein?
A: The Km was 31 ± 4 µM.

Q: And the kcat [2]?
A: Its kcat is 186 ± 6 s⁻¹.
